Reference: publication PMC3485628, “Perlecan domain 1 recombinant proteoglycan augments BMP-2 activity and osteogenesis” (BMC Biotechnology, 2012)

Target: T1, recombinant human perlecan domain 1 proteoglycan rhPln.247 (human, UniProt P98160 22-247, heparan sulfate and chondroitin sulfate glycosaminoglycan chains (CS:HS ratio of approximately 2:1); attachment residues not given)
T1 construct: signal peptide in the construct; The secreted product has probably lost the signal peptide; also called rhPln.D1; rPlnD1; source: HEK 293 cells, adenoviral expression system, purified
T1 sequence (P98160 22-247): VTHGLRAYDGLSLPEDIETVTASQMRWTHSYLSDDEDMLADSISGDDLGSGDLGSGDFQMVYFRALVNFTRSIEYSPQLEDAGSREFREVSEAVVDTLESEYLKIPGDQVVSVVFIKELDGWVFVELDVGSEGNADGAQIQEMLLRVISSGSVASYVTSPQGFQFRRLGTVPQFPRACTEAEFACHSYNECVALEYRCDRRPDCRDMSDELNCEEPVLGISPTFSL
Test: ELISA; rhPln.247 coated directly on polystyrene microtiter wells overnight at 4°C in PBS/N3 at about 1-2 ug/ml; rhBMP-2 or rhBMP-7 serially diluted; retained BMP detected with biotinylated anti-BMP antibodies; background without rhPln.247 subtracted; apparent Kd
Details: both partners purified

- fold by which rhBMP-2 binds more tightly than rhBMP-7: ~10 fold
B1: recombinant human bone morphogenetic protein-7 (ligand)
chain: STGSKQRSQNRSKTPKNQEALRMANVAENSSSDQRQACKKHELYVSFRDLGWQDWIIAPEGYAAYYCEGECAFPLNSYMNATNHAIVQTLVHFINPETVPKPCCAPTQLNAISVLYFDDSSNVILKKYRNMVVRACGCH
notes: bone morphogenetic protein 7, human, recombinant; also called rhBMP-7; rBMP-7; source: bought: R&D Systems
